Data from the supplement of paper PMC11246515.
± gives the standard deviation of the averaged measurements.

Test: total protein half-life in vivo (active degradation + dilution); higher = more stable protein
[1] = E. coli NCM3722 delta-clpP delta-lon delta-hslV, growth: N-lim chemostat, doubling time 6 h
[2] = E. coli NCM3722 delta-clpP, growth: N-lim chemostat, doubling time 6 h
[3] = E. coli NCM3722 delta-hslV, growth: N-lim chemostat, doubling time 6 h
[4] = E. coli NCM3722 delta-lon, growth: N-lim chemostat, doubling time 6 h
[5] = E. coli NCM3722 delta-smpB, growth: N-lim chemostat, doubling time 6 h
[6] = wild type E. coli NCM3722, growth: C-lim chemostat, doubling time 3 h
[7] = wild type E. coli NCM3722, growth: C-lim chemostat, doubling time 12 h
[8] = wild type E. coli NCM3722, growth: N-lim chemostat, doubling time 6 h
[9] = wild type E. coli NCM3722, growth: N-lim chemostat, doubling time 12 h
[10] = wild type E. coli NCM3722, growth: P-lim chemostat, doubling time 6 h
[11] = wild type E. coli NCM3722, growth: P-lim chemostat, doubling time 12 h
[12] = wild type E. coli NCM3722, growth: C-lim chemostat, doubling time 6 h

Row | Substance | total protein half-life in vivo [1] [h] | total protein half-life in vivo [2] [h] | total protein half-life in vivo [3] [h] | total protein half-life in vivo [4] [h] | total protein half-life in vivo [5] [h] | total protein half-life in vivo [6] [h] | total protein half-life in vivo [7] [h] | total protein half-life in vivo [8] [h] | total protein half-life in vivo [9] [h] | total protein half-life in vivo [10] [h] | total protein half-life in vivo [11] [h] | total protein half-life in vivo [12] [h]
1 | MAVHLLIVDALNLIRRIHAVQGSPCVETCQHALDQLIMHSQPTHAVAVFDDENRSSGWRHQRLPDYKAGRPPMPEELHDEMPALRAAFEQRGVPCWSTSGNEADDLAATLAVKVTQAGHQATIVSTDKGYCQLLSPTLRIRDYFQKRWLDAPFIDKEFGVQPQQLPDYWGLAGISSSKVPGVAGIGPKSATQLLVEFQSLEGIYENLDAVAEKWRKKLETHKEMAFLCRDIARLQTDLHIDGNLQQLRLVR | 4.94 ± 0.096 | 4.23 ± 0.28 | 4.29 | 5.14 ± 0.59 | 3.86 ± 0.59 | 2.66 ± 0.54 | 10.7 ± 0.93 | 4.2 ± 0.5 | 8.02 | 5.06 ± 0.52 | 10.7 ± 1.7 | –
2 | MSETASWQPSASIPNLLKRAAIMAEIRRFFADRGVLEVETPCMSQATVTDIHLVPFETRFVGPGHSQGMNLWLMTSPEYHMKRLLVAGCGPVFQLCRSFRNEEMGRYHNPEFTMLEWYRPHYDMYRLMNEVDDLLQQVLDCPAAESLSYQQAFLRYLEIDPLSADKTQLREVAAKLDLSNVADTEEDRDTLLQLLFTFGVEPNIGKEKPTFVYHFPASQASLAQISTEDHRVAERFEVYYKGIELANGFHELTDAREQQQRFEQDNRKRAARGLPQHPIDQNLIEALKVGMPDCSGVALGVDRLVMLALGAETLAEVIAFSVDRA [P0A8N7] | 5.63 | 4.37 | 3.95 | 3.35 | 3.93 ± 0.61 | 2.71 ± 0.4 | 9.92 | 3.34 | – | 6.35 ± 0.51 | 14.41 ± 0.11 | 6.14
3 | MKNIRNFSIIAHIDHGKSTLSDRIIQICGGLSDREMEAQVLDSMDLERERGITIKAQSVTLDYKASDGETYQLNFIDTPGHVDFSYEVSRSLAACEGALLVVDAGQGVEAQTLANCYTAMEMDLEVVPVLNKIDLPAADPERVAEEIEDIVGIDATDAVRCSAKTGVGVQDVLERLVRDIPPPEGDPEGPLQALIIDSWFDNYLGVVSLIRIKNGTLRKGDKVKVMSTGQTYNADRLGIFTPKQVDRTELKCGEVGWLVCAIKDIHGAPVGDTLTLARNPAEKALPGFKKVKPQVYAGLFPVSSDDYEAFRDALGKLSLNDASLFYEPESSSALGFGFRCGFLGLLHMEIIQERLEREYDLDLITTAPTVVYEVETTSREVIYVDSPSKLPAVNNIYELREPIAECHMLLPQAYLGNVITLCVEKRGVQTNMVYHGNQVALTYEIPMAEVVLDFFDRLKSTSRGYASLDYNFKRFQASDMVRVDVLINGERVDALALITHRDNSQNRGRELVEKMKDLIPRQQFDIAIQAAIGTHIIARSTVKQLRKNVLAKCYGGDISRKKKLLQKQKEGKKRMKQIGNVELPQEAFLAILHVGKDNK | 5.44 ± 0.33 | 5.46 ± 0.92 | 5.24 ± 0.14 | 5.28 ± 0.43 | 4.79 ± 0.27 | 3.03 ± 0.18 | 10.2 ± 0.72 | 4.754 ± 0.043 | 8.74 ± 0.49 | 5.851 ± 0.057 | 12.16 ± 0.1 | 5.49 ± 0.072
4 | MSNAITMGIFWHLIGAASAACFYAPFKKVKKWSWETMWSVGGIVSWIILPWAISALLLPNFWAYYSSFSLSTRLPVFLFGAMWGIGNINYGLTMRYLGMSMGIGIAIGITLIVGTLMTPIINGNFDVLISTEGGRMTLLGVLVALIGVGIVTRAGQLKERKMGIKAEEFNLKKGLVLAVMCGIFSAGMSFAMNAAKPMHEAAAALGVDPLYVALPSYVVIMGGGAIINLGFCFIRLAKVKDLSLKADFSLAKSLIIHNVLLSTLGGLMWYLQFFFYAWGHARIPAQYDYISWMLHMSFYVLCGGIVGLVLKEWNNAGRRPVTVLSLGCVVIIVAANIVGIGMAN | – | – | – | – | – | – | – | – | 7.44 | – | – | –
5 | MLNSILVILCLIAVSAFFSMSEISLAASRKIKLKLLADEGNINAQRVLNMQENPGMFFTVVQIGLNAVAILGGIVGDAAFSPAFHSLFSRYMSAELSEQLSFILSFSLVTGMFILFADLTPKRIGMIAPEAVALRIINPMRFCLYVCTPLVWFFNGLANIIFRIFKLPMVRKDDITSDDIYAVVEAGALAGVLRKQEHELIENVFELESRTVPSSMTPRENVIWFDLHEDEQSLKNKVAEHPHSKFLVCNEDIDHIIGYVDSKDLLNRVLANQSLALNSGVQIRNTLIVPDTLTLSEALESFKTAGEDFAVIMNEYALVVGIITLNDVMTTLMGDLVGQGLEEQIVARDENSWLIDGGTPIDDVMRVLDIDEFPQSGNYETIGGFMMFMLRKIPKRTDSVKFAGYKFEVVDIDNYRIDQLLVTRIDSKATALSPKLPDAKDKEESVA [P0AE45] | 5.65 ± 0.36 | 6.93 ± 1.4 | 4.5 ± 0.44 | 4.11 ± 0.21 | 4.53 ± 0.24 | 2.97 ± 0.18 | 8.79 ± 0.3 | 4.33 ± 0.52 | 7.63 ± 0.57 | 5.01 ± 0.053 | 9 ± 0.094 | 5.16 ± 0.21
6 | MSKVCIIAWVYGRVQGVGFRYTTQYEAKRLGLTGYAKNLDDGSVEVVACGEEGQVEKLMQWLKSGGPRSARVERVLSEPHHPSGELTDFRIR [P0AB65] | 6.07 ± 0.29 | 5.82 ± 0.093 | 5.59 ± 0.28 | 5.89 ± 0.12 | 5.9 ± 0.89 | 3.38 ± 0.23 | 8.66 | 5.32 ± 0.17 | 9.77 ± 1.8 | – | – | 5.96 ± 0.08
7 | MTKTLLDGPGRVLESVYPRFLVDLAQGDDARLPQAHQQQFRERLMQELLSRVQLQTWTNGGMLNAPLSLRLTLVEKLASMLDPGHLALTQIAQHLALLQKMDHRQHSAFPELPQQIAALYEWFSARCRWKEKALTQRGLLVQAGDQSEQIFTRWRAGAYNAWSLPGRCFIVLEELRWGAFGDACRLGSPQAVALLLGDLLEKATQHLAESINAAPTTRHYYHQWFASSTVPTGGEHADFLSWLGKWTTADKQPVCWSVTQRWQTVALGMPRLCSAQRLAGAMLEEIFSVNLA | – | – | – | – | 3.06 | 2.56 ± 0.43 | 7.8 | – | – | – | 12.1 ± 0.79 | 5.83 ± 1.1
8 | MNKAKRLEILTRLRENNPHPTTELNFSSPFELLIAVLLSAQATDVSVNKATAKLYPVANTPAAMLELGVEGVKTYIKTIGLYNSKAENIIKTCRILLEQHNGEVPEDRAALEALPGVGRKTANVVLNTAFGWPTIAVDTHIFRVCNRTQFAPGKNVEQVEEKLLKVVPAEFKVDCHHWLILHGRYTCIARKPRCGSCIIEDLCEYKEKVDI [P0AB83] | 5.59 ± 0.65 | 5.67 ± 0.41 | 5.9 ± 0.36 | – | 5.611 ± 0.039 | 3.22 ± 0.093 | 10.7 ± 0.51 | 5.79 ± 0.092 | 11.95 ± 0.045 | 5.88 ± 0.55 | 10.9 ± 0.86 | 5.58 ± 0.078
9 | MNPAVDNEFQQWLSQINQVCGNFTGRLLTERYTGVLDTHFAKGLKLSTVTTSGVNLSRTWQEVKGSDDAWFYTVFQLSGQAIMEQDERQVQIGAGDITLLDASRPCSLYWQESSKQISLLLPRTLLEQYFPHQKPICAERLDADLPMVQLSHRLLQESMNNPALSETESEAALQAMVCLLRPVLHQRESVQPRRERQFQKVVTLIDDNIREEILRPEWIAGETGMSVRSLYRMFADKGLVVAQYIRNRRLDFCADAIRHAADDEKLAGIGFHWGFSDQSHFSTVFKQRFGMTPGEYRRKFR | 6.1 ± 0.083 | – | – | 1.98 | – | 0.364 ± 0.09 | 0.65 | – | – | – | – | 0.661 ± 0.089
10 | P0CK95 | – | – | – | – | – | 2.75 | – | – | – | 6.26 ± 0.39 | 13 ± 0.41 | –
